From paper PMC9452301 (Nature, 2022)

Target: protein phosphatase 1 catalytic subunit, γ-isoform (PPP1CCγ) (human, UniProt P36873 1-323)
Assay: cell-based or functional assay

Chain of protein phosphatase 1 catalytic subunit, γ-isoform (PPP1CCγ) (P36873 whole entry, canonical isoform): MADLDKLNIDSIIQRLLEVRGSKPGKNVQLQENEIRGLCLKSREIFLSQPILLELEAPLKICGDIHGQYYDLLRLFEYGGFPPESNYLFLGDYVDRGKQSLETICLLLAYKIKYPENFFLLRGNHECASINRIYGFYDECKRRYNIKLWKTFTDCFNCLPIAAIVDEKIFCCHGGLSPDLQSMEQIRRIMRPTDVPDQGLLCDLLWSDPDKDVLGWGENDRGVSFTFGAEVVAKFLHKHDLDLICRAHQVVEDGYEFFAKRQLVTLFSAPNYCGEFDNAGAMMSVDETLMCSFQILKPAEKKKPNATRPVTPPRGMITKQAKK

B1: N-terminally truncated SHOC2 (SHOC2-ΔN; residues 91–582) (domain or fragment)
chain: IKELNKCREENSMRLDLSKRSIHILPSSIKELTQLTELYLYSNKLQSLPAEVGCLVNLMTLALSENSLTSLPDSLDNLKKLRMLDLRHNKLREIPSVVYRLDSLTTLYLRFNRITTVEKDIKNLSKLSMLSIRENKIKQLPAEIGELCNLITLDVAHNQLEHLPKEIGNCTQITNLDLQHNELLDLPDTIGNLSSLSRLGLRYNRLSAIPRSLAKCSALEELNLENNNISTLPESLLSSLVKLNSLTLARNCFQLYPVGGPSQFSTIYSLNMEHNRINKIPFGIFSRAKVLSKLNMKDNQLTSLPLDFGTWTSMVELNLATNQLTKIPEDVSGLVSLEVLILSNNLLKKLPHGLGNLRKLRELDLEENKLESLPNEIAYLKDLQKLVLTNNQLTTLPRGIGHLTNLTHLGLGENLLTHLPEEIGTLENLEELYLNDNPNLHSLPFELALCSKLSIMSIENCPLSHLPPQIVAGGPSFIIQFLKMQGPYRAMV
Q: Which “Kd^app of SHOC2 from peptide dephosphorylation (25 nM PP1C, 1 µM MRAS(GCP))” value does the source give for B1 here?
A: ~40 fold weaker than full-length SHOC2
